# Experiments:
# [1] = molecular target: T1, EGFR on cells (human, UniProt P00533); test: flow cytometry, MKN-45 cells (c-MET+++ EGFR++)
# T1 construct: endogenous receptor on the cell surface; for A549 cells m5 is used; also called on NCI-H441, EBC-1, A431, MKN-45, HepG2 or T47D cells (cell line under assay)
# [2] = molecular target: T2, c-MET on cells (human, UniProt P08581); test: flow cytometry, SK-MEL2 cells (c-MET+ EGFR-)
# T2 construct: endogenous receptor on the cell surface; for A549 cells m4 is used; also called HGFR; on NCI-H441, EBC-1, A431, MKN-45, SK-MEL2 or HepG2 cells (cell line under assay)
# [3] = molecular target: T1, EGFR on cells; test: flow cytometry, HepG2 cells (c-MET+ EGFR+)
# [4] = molecular target: T1, EGFR on cells; test: flow cytometry, A431 cells (c-MET+ EGFR+++)
# [5] = molecular target: T3, EGFR (epidermal growth factor receptor) on A549 cells (human, UniProt P00533 25-1210); test: flow cytometry, A549 cells (c-MET+ EGFR++)
# T3 construct: whole, on cells; Endogenous receptor of A549 cells; phosphorylation read out in cell lysates
# [6] = molecular target: T1, EGFR on cells; test: flow cytometry on NCI-H441 cells (express c-MET and EGFR), FITC anti-human Fc, n=3
# Procedure: NCI-H441 cells were detached with trypsin, centrifuged at 250×g for 10 min at 4° C. and resuspended in FACS buffer (1% BSA in 1×PBS). Cells were transferred to in 96 well round bottom plates at a density of 1×10⁵ cells/well on ice. Purified c-MET×EGFR bispecific antibodies (0.02-200 nM) were added in FACS buffer in triplicates for 1 h on ice. Cells were centrifuged for 1000×g for 5 min at 4° C. and washed 3 times with 100 μl FACS buffer. Cells were incubated with 500 ng/well Fluorescein (FITC)-conjugated goat anti-human Fc gamma fragment IgG specific antibody (Jackson ImmunoResearch) diluted in FACS buffer on ice for 1 h. Cells were washed again 3 times with 100 μl FACS buffer. For counter staining of non-viable cells, centrifuged cells were resuspended in 200 μl propidium iodide solution (Invitrogen) diluted in FACS buffer (1:200). […] Data were plotted as mean fluorescence intensity (raw fluorescence subtracted by background, e.g. non-stained cell control) against the logarithm of the bispecific antibody concentration and fitted to a sigmoidal dose-response curve with variable slope using GraphPad Prism 4 (GraphPad Software).
# [7] = molecular target: T4, EGFR (soluble extracellular domain) (human, UniProt P00533); test: BLI (Octet), antibody on anti-human Fc biosensors, soluble EGFR ECD as analyte
# T4 construct: soluble extracellular domain; also called Human EGFR extracellular domain, R&D Systems 1095-ER
# [8] = molecular target: T1, EGFR on cells; test: flow cytometry, EBC-1 cells (c-MET+++ EGFR++)
# [9] = molecular target: T5, c-MET and EGFR co-expressed on cells (human, UniProt P08581;P00533); test: flow cytometry, MKN-45 cells (c-MET+++ EGFR++)
# T5 construct: endogenous receptor on the cell surface; not a complex: two separate receptors on the same cell; used as target only for bispecific c-MET x EGFR molecules, whose cell staining cannot be split between the two arms; also called cells that carry both receptors: NCI-H441, EBC-1, A431, MKN-45, A549, HepG2 (cell line under assay)
# [10] = molecular target: T1, EGFR on cells; test: flow cytometry at 300 nM on mixed EBC-1 and T47D (low EGFR, no c-MET) cells, anti-human Fc detection; T47D population
# Source text: (A) EBC-1 as tumor model cell line with high to moderate c-MET and EGFR expression and T47D as epithelial model cell line with low EGFR expression and no c-MET expression were mixed in a ratio of 1:30. In order to distinguish the two cell lines, EBC-1 cells were stained with the green membrane dye PKH2. […] Antibody binding was detected by FITC-labeled anti-hu Fc secondary antibody. […] (B) In vitro selectivity was defined as the ratio of mean fluorescence intensity of the EBC-1 and the T47D cell population.
# [11] = molecular target: T5, c-MET and EGFR co-expressed on cells; test: flow cytometry, HepG2 cells (c-MET+ EGFR+)
# [12] = molecular target: T5, c-MET and EGFR co-expressed on cells; test: flow cytometry, A431 cells (c-MET+ EGFR+++)
# [13] = molecular target: T5, c-MET and EGFR co-expressed on cells; test: flow cytometry, A549 cells (c-MET+ EGFR++)
# [14] = molecular target: T5, c-MET and EGFR co-expressed on cells; test: flow cytometry, EBC-1 cells (c-MET+++ EGFR++)
MFI at 100 nM [1],MFI at 100 nM [2],binding result [2],MFI at 100 nM [3],MFI at 100 nM [4],MFI at 100 nM [5],EC50 (read off the curve) [6] [pM],Kd [7] [pM],koff [7] [s⁻¹],kon [7] [M⁻¹ s⁻¹],MFI at 100 nM [8],MFI at 100 nM [9],binding result [10],MFI at 100 nM [11],MFI at 100 nM [12],MFI at 100 nM [13],MFI at 100 nM [14],Binder
199,20,no binding (tested: 100 nM),53,2230,184,~400,140,0.00049,3.6e+06,287,,,,,,,"oa 225-H (antibody, V domains shown, one-armed (monovalent) anti-EGFR SEED molecule) VH: EVQLVQSGAEVKKPGASVKVSCKASGFSLTNYGVHWMRQAPGQGLEWIGVIWSGGNTDYNTPFTSRVTITSDKSTSTAYMELSSLRSEDTAVYYCARALDYYDYEFAYWGQGTLVTVSS VL: DIQMTQSPSSLSASVGDRVTITCRASQSIGTNIHWYQQKPGKAPKLLIKYASESISGVPSRFSGSGYGTDFTLTISSLQPEDVATYYCQQNNEWPNTFGQGTKVEIK"
,341,,,,,,,,,,1220,binds,451,847,249,2040,"B10v5x225-L (bispecific antibody, V domains shown, c-MET x EGFR SEED bispecific) VL (c-MET arm): EPVLTQPPSVSVAPGETATIPCGGDSLGSKIVHWYQQRPGQAPLLVVYDDAARPSGIPERFSGSKSGTTATLTISSVEAGDEADYFCQVYDYHSDVEVFGGGTKLTVLGQPKAA VH (c-MET arm): not shown VL (EGFR arm): DIQMTQSPSSLSASVGDRVTITCRASQSIGTNIHWYQQKPGKAPKLLIKYASESISGVPSRFSGSGYGTDFTLTISSLQPEDVATYYCQQNNNWPTTFGQGTKVEIK VH (EGFR arm): EVQLVQSGAEVKKPGASVKVSCKASGFSLTNYGVHWMRQAPGQGLEWIGVIWRGGNTDYNTPFTSRVTITSDKSTSTAYMELSSLRSEDTAVYYCARALTYYDYEFAYWGQGTLVTVSS"
